From a protein production outcome set (Wang et al. 2014)

Test: label from the status in PepcDB records

Sequence	protein production
VMRLVTLRSHDQYNTTIYAMDDRYRGVFGRRDVLFMNEQDMAAQGLEHGDRVDIHTALPGSALTLEDITVVAYGIAPGTVGAYYPEANVLVPLNYLDEESGTPSYKSVPVRLTLRSKEIRPLVGGR	not failed
VSEEEIRMLVAESHEAGVIDAHERDMMNRVMRLGDRTADSLMTPRNRIAWLDANAEPERNLHVMREHEFSRYPVYRGSDQDIAGVLEVKSLVTRMDGHGAQLFQNLRDTLFVSESTHAMKLLEIFREEQQSMALVVDEYGEIRGLVTISDLMGAVVGRLQSVENTDD	failed
MGSFHRRTFSYDKLPNEPIRLSVLKLDGSSFDVYVLTSATVGDLKVAIETAFSHVPKKGPSKISWSHVWGHFCLCFGGQKLITDTDCIGNYGMKDGDEVRFKNHVSGNAVLSKGYSRKSKQKNLERVLPKDGDEVLNRIEEIDDSWDDLERGGLVMYKDDDMETSSNESNRSCLSTVHGCCFAFGLKELLGFGNDRAYYSLRDTWRDD	failed
MGRAMGDSFTFIFNPAADKGRAADKTALIERSLAHFEVASLETTRFAGHAAEIARAAAGEGSTLIACGGDGTLNEVVNAVAGQPVKVGVLPVGSANDFLKTFNPSAKEHEVRIRGFAGATSRKVDLGKV	failed
MAGIKVFGHPASTSTRRVLIALHEKNLDFELVHVELKDGEHKKEPFLSRNPFGQVPAFEDGDLKLFESRAITQYIAHRYENQGTNLLPADSKNIAQYAIMSIGIQVEAHQFDPVASKLAWEQVFKFNYGLNTDQAVVAEEEAKLAKVLDVYEARLKEFKYLAGETFTLTDLHHIPVIQYLLGTPTKKLFTERPRVNEWVAEITKRPASEKVL	failed
MTTPNFELYGYFRSSCSGRLRIAFHLKSIPYTRHPVNLLKGEQHSDTYKSLNPTNTVPLLVVSNINNTVSPSSASFSIGQSLAALEYLEEALPTNARPLLPPISNPVARAHVRTICNIIACDVQPVTNLKIQKKVKALDGDPTVWSRDLATQGFGAVEKLLELSAGRFCVGDEITLADVCLVPAVWAAERVGMDLARFPITKRVFEEMLKEEAVQKAHWQKQEDTPEDLRA	not failed
MTIHWCGTGLSAIPGLRRLIEAGHALTVWNRTVEKARAELGDLTDDIRAFDIDALGAVLAKGDVVVSMLPGDWHVPLAELAIAKGTHFVSSSYIAPEMRALDERAREAGVSLVNEIGLDPGIDHLMAHELVADYRASDAFDAQNHLSFISYCGGIPKHPNPFRYKFSWSPLGVLKALRSPSRSIRDYAPLDVARPWDAISSYTAPLPTPESFEVYPNRDSLPFMGQYHFKEHWPVKEFVRGTLRLNGWADAWGDVFREIETLSGPEGDARLKEMSDQFWAENAYDQGEPDRVVLCVGLKAEKDGREVWHKSYVMDAWGDARGTAMARLVSIPVSLAVEAVLNREIPAGVHAASSDPKLLARWMAEVATLAQHLQIVDHTA	failed
MGTLPARRHIPPWVKVPEDLKDPEVFQVQTRLLKAIFGPDGSRIPYIEQVSKAMLELKALESSDLTEVVVYGSYLYKLRTKWMLQSMAEWHRQRQERGMLKLAEAMNALELGPWMK	failed
PRRWPILLIFPGSGFIQMTEREAEPIALAFSAQGYQTMVVEYNLLDRGPVYPNAIDVGLTALKYAKNQGPPHYGDANKTILMGFSAGSHVAALTNAMGNNTEYLKTHGFGDSPLTSRLQVLGYPVIDLAAGFPKSREEAFKISPDEQYWASQNLVTDQTPPTFLWNTCADAVVPTMNSLLYAEALARHHVEYDIHTFTHGKHGLCLSTVETSRYNYPEDIEPRAANWVPLVLSWLSEMLD	failed
MGMEHKTYEADLFVWCQQQADGLRALSRSRRDLPDDLDLEHIAEEIEDMGRSELREATSLVRQICVRVIMAMSAPEAPDRARWRSEVVSWHNLLLDTITPGMIDRIDIGVIWRRAVSEAKAALIEINVAPQAGLSFQAPLPADHFLDEDFDYDATVARLGPTA	not failed
MKTESTGKALMVLGCPESPVQIPLAIYTSHKLKKKGFRVTVTANPAALRLVQVADPEGIYTDEMVDLESCINELAEGDYEFLAGFVPNDAAAAYLVTFAGILNTETLAIIFDRDADVLEELVNEIMETLDAEIIAARAHHNPAPLRVRIDRFMEEKP	not failed
MHIIQRNPSTNLPEGPYSATSAVKDPSHLPMGHHICFSVPNFDSFLHSLKEKGIETFQKSLPDGKVKQVFFFDPDGNGLEVASRS	failed
MGTVSKALSLLALFNHGRLEMGLSELTRLSGMNKATVYRMMTELQAAGFVEQMNGDRAYRLGPEVLRLAALREAAVPLLSVSRDVLRRLCDETGETSHMSIQRNGQLTTLTHAYSSHHGTRVAMEDAEILSLHATGSGLAFLAFSSEEVVEHALSAPLIKHTPQTETDPARLRQALAEAQQSGVAESVGGFEADVHSHAAPIFGADQRPIGALAVAAPVSRMTAELKSRVRAALKEAALDLTQRTGGFCPPGYPGAA	failed
MEFSLIADTVTVCTAKQGIAFGKSLLQRLDLANHISFADSVVDHQSPGGGIVQASAIIFPVDAIAPPPVRSSSYKTIRRIRKKRRTRRVSFGGDGDDAGDFGRFLLEGDFGGSDGPFGFGGGGNDGGGKGWNYGGGGGGFGRDNWDGSSFSSWSDPAMEFVYEVICWIALSNCVHFAFKRIVRIVTDGEREKLNIALSPVC	failed
MRLFSIPPPTLLAGFLAVLIGYASSAAIIWQAAIVAGATTAQISGWMTALGLAMGVSTLTLTLWYRVPVLTAWSTPGAALLVTGLQGLTLNEAIGVFIVTNALIVLCGITGLFARLMRIIPHSLAAAMLAGILLRFGLQAFASLDGQFTLCGSMLLVWLATKAVAPRYAVIAAMIIGIVIVIAQGDVVTTDVVFKPVLPTYITPDFSFAHSLSVALPLFLVTMASQNAPGIAAMKAAGYSAPVSPLIVFTGLLALVFSPFGVYSVGIAAITAAICQSPEAHPDKDQRWLAAAVAGIFYLLAGLFGSAITGMMAALPVSWIQMLAGLALLSTIGGSLYQALHNERERDAAVVAFLVTASGLTLVGIGSAFWGLIAGGVCYVVLNLIADRNRY	failed
MVSLTMVPIDALLSKEVNAFIVQHKHASVAELMLRMPVFTVDSRWIAAQIEGWQKASQKLPLWASTENIIYPIRLSMEQCSSERTAHYKSTLMSGERLVDLTGGFGVDSFYLSKSFNEVIYIEQQEDLAEIAAHNFSTLNQNNIVVKTADSDEYLKDIAEKIDVIFLDPARRKEMRKVYKLSDCEPNVVALQSFYFSKADVILIKTSPMLDITEATRQLTGIKEIHVVSVDNECKEVLYLLEKNYSGKATYICAHDYKKQLQLFSFTIAAEQAVTLSYSAPLAYLYEPNPSILKAGGFNSITQKYEVFKLHASSHLYTSASEVSDFPGRTFKIKETVGYSKKDIQAAVPGGKANIQTRNFPDSVEAIRKKTGLKDGGNIFIFATTLHDLSKVLLICEKI	failed
QRLSNSIINSLASGEGVVEALRTMKNDGVISGMFKLEQGKFNRSIENLVRTEYSHFAVEGVRKSLKDIGVKQTQSWSAEDERVCSICGGRHGKEIKDDWHPPYHGRCRCTEI	failed
MPGTVGVLSGARSLLLSMVASVTAAGGNAAIVGQPDIGLLAAVEMGADLSRLAMIPDPGTDPVEVAAVLIDGMDLVVLGLGGRRVTRARARAVVARARQKGCTLLVTDGDWQGVSTRLAARVCGYEITPALRGVPTPGLGRISGVRLQINGRGRLEHHHHHH	failed
MNTMEKKTNIHAEDGKQDLLISREFDLPVELLFKAYTEPEFVEQWMGTTVLKLENKKHGSYQFETTDPKGNKHGFNGTIHEFVPDKKITRTFEMDNTPFPIQLEFLVFEKTTETTSKLNMHVIYKSVTDRDNILKLPFAQGINMAHNRIQELPTKLK	failed
MIFIESITNSVPWVNSLALTLNSPLLATTNEAENAPIVLTGVLLTLVVIYLASKIGGELSRLVDLPPVLGELVAGVLVGASALHLVVFPESGAVAGDSVIMTILQFINNLTPDAVTAIFQSQSEAVSVLAELGVIILLFEIGLESDLKELQKVGYQATIVACVGVAVPFTAGTVGLISIFHAPVIPAIFAGAALTATSIGITSKVLSELGQLKSREGQIIVGAAVIDDILGIIVLAVVASLAKTGEVDVLNVIYLIVSATVFLIGSILLGKYFNQSFVAIANKLQTRGNLIIPAFIFAFFMAFLGNAIHLEAILGAFAAGLVLDETDKRKELDEQVKPIADILVPIFFVTVGAKVDLSVLNPVVPGNREGLIIATFLIVVAIIGKIVTGWAVFGQPGINRLAVGVGMIPRGEVGLVFAGIGSASGALDKPLQAAIIIMVILTTFLAPPLLRFAFKQSEEIKELEKADLLG	failed
VPSLATAIGSSGDRPAALAELIGIIQNDGIRLPPVRIDSLHFAADTPYDTELIINPELGQRVLPSEVATAMREALSQVVDGGTAKRVQGTFKMQDGSVLAMGGKTGTGDNRIESIGAGGRILSSRAINRTATFVFYIGDNHFGALTAFVPGRAAEGFRFTSALPVQVLKGMAPILTPYLENHGQAMCNAPLADPPTGA	failed
MSQPTPAVRTFQDLILALQQYWAEQGCVVLQPYDMEVGAGTFHTATFLRAIGPETWNAAYVQPSRRPTDGRYGENPNRLQHYYQFQVVLKPNPENFQELYLGSLKHVGLDPLVHDIRFVEDNWESPTLGAWGLGWEVWLNGMEVTQFTYFQQAGGIECYPVTGEITYGLERLAMYLQGVDSVYDLVWADGPFGKVTYGDVFHQNEVEQSTYNFEHANVEKLFELFDFYESEAKRLIELDQPLPLPSYEMVLKASHTFNLLDARRAISVTARQQYILRVRTLARSVAQAYLLARAKLGFPMATPDLRDEVLAKLEAAQ	failed
MGQFSILGFIALGGAIGACSRYLVSEFCVLLFGRGFPYGTLTVNVVGSFIMGLLIAAFENEILATEPWRQVIGLGFLGALTTFSTFSMDNVLLMQQGAFFKMGLNILLNVVLSISAAWIGFQLLMRS	failed
AAKPQIVEVTDDMPVEPIGVGIPEAGQTYPVIMGDYAAQQARWARIDVQPGTALSKPKPLIAKLDPELGETGPEWAPVNP	failed
MIFLIFSFIVLLIFGLANVYIYKRLIKKITLFKYFYKIFSFIFIVLFLAQAVFLIFRRDEYLSDTWYEILAMFYAPTYCLFFMTLAWDFVKLILALMGKRDKTYNLILRLIFELSLIVLSVFLIYVSINNALKTPEVKSVDVEIPNLKKDLKIVMLTDIHLGKNLHENFLDKLITKVNLQSPDMVVIVGDLIDTNPKDLKNYISKLNDFNSTYGTFYALGNHEYYHGINEVLDLLRKHTNMKILVNQNLDLGFINIAGLGDLAGLDRGLYAPDLARIKVDLNTSKASILLTHQPKTALLYDLSDFDLVLSGHTHGGQIFPFMFLVKLQQGFVHGLYDLGEKTKLYVSSGAGFWGPSLRVFAPSEIVILNLKGKK	failed
MRWNICVVGAGKIGQMIAALLKTSSNYSVTVADHDLAALAVLNRMGVATKQVDAKDEAGLAKALGGFDAVISAAPFFLTPIIAKAAKAAGAHYFDLTEDVAATNAVRALAEDSQT	not failed
MDEIDLRILKILQYNAKYSLDEIAREIRIPKSTLSYRIKKLEKDGVIKGYYAYINPASLNLDYIVITSVKAKYGKNYHVELGNKLAQIPGVWGVYFVLGDNDFIVMARYKTREEFMEKFLERVMSIPEVERTSTQVVVKIIKESPNIVIF	not failed
